{
  "source": "patent US20250019437A1",
  "binders": {"B1": {"name": "6E7 antibody affinity modulation variant V7 (antibody, V domains shown)", "VH": "EVQLVQSGAEVKKPGESLKISCKGSGYSFTSEWIAWVRQMPGKGLEWMGIIYPGDSDTRYSPSFQGQVTISADKSISTAYLQWSSLKASDTAMYFCARQRTFYYDSSDYFDYWGQGTLVTVSS", "VL": "DIQMTQSPSSVSASVGDRVTITCRASQGISSWLAWYQQKPGKAPKLLIYAASSLQNGVPSRFSGSGSGTDFTLTISSLQPEDFATYFCQQADSFPRTFGQGTKLEIK"}, "B2": {"name": "6E7 antibody affinity modulation variant V8 (antibody, V domains shown)", "VH": "B1 VH with E32Y, R59K", "VL": "B1 VL"}, "B3": {"name": "6E7 antibody affinity modulation variant V9 (antibody, V domains shown)", "VH": "B1 VH with E32Y, T101G", "VL": "B1 VL"}, "B4": {"name": "6E7 antibody affinity modulation variant V10 (antibody, V domains shown)", "VH": "B1 VH with E32Y", "VL": "B1 VL with A50S"}, "B5": {"name": "6E7 antibody affinity modulation variant V11 (antibody, V domains shown)", "VH": "B1 VH with E32Y", "VL": "B1 VL with D92A"}, "B6": {"name": "6E7 antibody affinity modulation variant V18 (antibody, V domains shown)", "VH": "B1 VH with E32Y, W33H", "VL": "B1 VL"}, "B7": {"name": "6E7 antibody affinity modulation variant V19 (antibody, V domains shown)", "VH": "B1 VH with E32S", "VL": "B1 VL"}, "B8": {"name": "6E7 antibody affinity modulation variant V20 (antibody, V domains shown)", "VH": "B1 VH with E32Y, I50R", "VL": "B1 VL"}, "B9": {"name": "6E7 antibody affinity modulation variant V21 (antibody, V domains shown)", "VH": "B1 VH with E32Y, Y109F", "VL": "B1 VL"}, "B10": {"name": "6E7 antibody affinity modulation variant V22 (antibody, V domains shown)", "VH": "B1 VH with E32Y", "VL": "B1 VL with A50R"}, "B11": {"name": "6E7 antibody affinity modulation variant V23 (antibody, V domains shown)", "VH": "B1 VH with E32Y", "VL": "B1 VL with R96L"}, "B12": {"name": "6E7 antibody affinity modulation variant V30 (antibody, V domains shown)", "VH": "B1 VH with Y27S, E32Y", "VL": "B1 VL"}, "B13": {"name": "6E7 antibody affinity modulation variant V31 (antibody, V domains shown)", "VH": "B1 VH with E32Y, D57E", "VL": "B1 VL"}, "B14": {"name": "6E7 antibody affinity modulation variant V32 (antibody, V domains shown)", "VH": "B1 VH with E32Y, P62N", "VL": "B1 VL"}, "B15": {"name": "6E7 antibody affinity modulation variant V33 (antibody, V domains shown)", "VH": "B1 VH with E32Y, Y104G", "VL": "B1 VL"}, "B16": {"name": "6E7 antibody affinity modulation variant V36 (antibody, V domains shown)", "VH": "B1 VH with E32Y, I34L, Q99S", "VL": "B1 VL with L54R, F94Y"}, "B17": {"name": "6E7 antibody affinity modulation variant V37 (antibody, V domains shown)", "VH": "B1 VH with F29H, E32Y, Q65A, Q99S", "VL": "B1 VL with N56W, F94Y"}, "B18": {"name": "6E7 antibody affinity modulation variant V38 (antibody, V domains shown)", "VH": "B1 VH with T30G, E32Y, T58V", "VL": "B1 VL with L54R, F94H"}, "B19": {"name": "6E7 antibody affinity modulation variant V39 (antibody, V domains shown)", "VH": "B1 VH with T30G, E32Y, S61N, Q99G", "VL": "B1 VL with Q55V, F94S"}, "B20": {"name": "6E7 antibody affinity modulation variant V40 (antibody, V domains shown)", "VH": "B1 VH with T30G, E32Y, T58V, F110S", "VL": "B1 VL with N56L, S93R"}, "B21": {"name": "6E7 antibody affinity modulation variant V41 (antibody, V domains shown)", "VH": "B1 VH with E32Y, I50T", "VL": "B1 VL"}, "B22": {"name": "6E7 antibody affinity modulation variant V48 (antibody, V domains shown)", "VH": "B1 VH with T30G, E32Y, T58V, Q99M", "VL": "B1 VL with N56T, F94L"}, "B23": {"name": "6E7 antibody affinity modulation variant V49 (antibody, V domains shown)", "VH": "B1 VH with T30N, E32Y, I50T, Y60L, Q99S", "VL": "B1 VL with L54R, F94Y"}, "B24": {"name": "6E7 antibody affinity modulation variant V50 (antibody, V domains shown)", "VH": "B1 VH with T30G, E32Y, I50V, F110L", "VL": "B1 VL with L54R, F94L"}, "B25": {"name": "6E7 antibody affinity modulation variant V51 (antibody, V domains shown)", "VH": "B1 VH with E32Y, T58V, Q99G, Y112N", "VL": "B1 VL with L54R"}},
  "note": "Where a chain is given by its changes, count along the chain named.",
  "data": [
    {"target": "T1, human TREM2 (triggering receptor expressed on myeloid cells 2) (human) (UniProt Q9NZC2)", "T1 sequence (looked up)": "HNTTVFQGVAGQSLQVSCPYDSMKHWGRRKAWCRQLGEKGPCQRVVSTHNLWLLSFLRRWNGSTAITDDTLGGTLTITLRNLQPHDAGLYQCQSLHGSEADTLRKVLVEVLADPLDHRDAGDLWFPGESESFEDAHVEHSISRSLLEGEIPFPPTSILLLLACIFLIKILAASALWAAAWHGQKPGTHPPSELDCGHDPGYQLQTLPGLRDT", "experiment": "1st screen, 110 nM Ab", "units": {"Binding Signal (fold over 6E7 parental antibody)": "fold"}, "values": [
      {"binder": "B1", "Binding Signal (fold over 6E7 parental antibody)": 0.11},
      {"binder": "B2", "Binding Signal (fold over 6E7 parental antibody)": 0.28},
      {"binder": "B3", "Binding Signal (fold over 6E7 parental antibody)": 0.67},
      {"binder": "B4", "Binding Signal (fold over 6E7 parental antibody)": 0.76},
      {"binder": "B5", "Binding Signal (fold over 6E7 parental antibody)": 0.79},
      {"binder": "B6", "Binding Signal (fold over 6E7 parental antibody)": 0.17},
      {"binder": "B7", "Binding Signal (fold over 6E7 parental antibody)": 0.59},
      {"binder": "B8", "Binding Signal (fold over 6E7 parental antibody)": 0.18},
      {"binder": "B9", "Binding Signal (fold over 6E7 parental antibody)": 0.76},
      {"binder": "B10", "Binding Signal (fold over 6E7 parental antibody)": 0.3},
      {"binder": "B11", "Binding Signal (fold over 6E7 parental antibody)": 0.4},
      {"binder": "B12", "Binding Signal (fold over 6E7 parental antibody)": 0.79},
      {"binder": "B13", "Binding Signal (fold over 6E7 parental antibody)": 0.61},
      {"binder": "B14", "Binding Signal (fold over 6E7 parental antibody)": 0.82},
      {"binder": "B15", "Binding Signal (fold over 6E7 parental antibody)": 0.23}
    ]},
    {"target": "T1, human TREM2 (triggering receptor expressed on myeloid cells 2) (human)", "experiment": "2nd screen, 2 nM Ab", "units": {"Binding Signal (fold over 6E7 parental antibody)": "fold"}, "values": [
      {"binder": "B16", "Binding Signal (fold over 6E7 parental antibody)": 4},
      {"binder": "B17", "Binding Signal (fold over 6E7 parental antibody)": 3.69},
      {"binder": "B18", "Binding Signal (fold over 6E7 parental antibody)": 3.44},
      {"binder": "B19", "Binding Signal (fold over 6E7 parental antibody)": 5.11},
      {"binder": "B20", "Binding Signal (fold over 6E7 parental antibody)": 3.41},
      {"binder": "B21", "Binding Signal (fold over 6E7 parental antibody)": 0.58},
      {"binder": "B22", "Binding Signal (fold over 6E7 parental antibody)": 2.3},
      {"binder": "B23", "Binding Signal (fold over 6E7 parental antibody)": 5.02},
      {"binder": "B24", "Binding Signal (fold over 6E7 parental antibody)": 3.39},
      {"binder": "B25", "Binding Signal (fold over 6E7 parental antibody)": 1.83}
    ]},
    {"target": "T1, human TREM2 (triggering receptor expressed on myeloid cells 2) (human)", "experiment": "2nd screen, 100 nM Ab", "units": {"Binding Signal (fold over 6E7 parental antibody)": "fold"}, "values": [
      {"binder": "B1", "Binding Signal (fold over 6E7 parental antibody)": 0.32},
      {"binder": "B2", "Binding Signal (fold over 6E7 parental antibody)": 0.77},
      {"binder": "B3", "Binding Signal (fold over 6E7 parental antibody)": 0.54},
      {"binder": "B4", "Binding Signal (fold over 6E7 parental antibody)": 0.7},
      {"binder": "B5", "Binding Signal (fold over 6E7 parental antibody)": 0.42},
      {"binder": "B6", "Binding Signal (fold over 6E7 parental antibody)": 0.42},
      {"binder": "B7", "Binding Signal (fold over 6E7 parental antibody)": 0.48},
      {"binder": "B8", "Binding Signal (fold over 6E7 parental antibody)": 0.52},
      {"binder": "B9", "Binding Signal (fold over 6E7 parental antibody)": 0.68},
      {"binder": "B10", "Binding Signal (fold over 6E7 parental antibody)": 0.71},
      {"binder": "B11", "Binding Signal (fold over 6E7 parental antibody)": 0.4},
      {"binder": "B12", "Binding Signal (fold over 6E7 parental antibody)": 0.72},
      {"binder": "B13", "Binding Signal (fold over 6E7 parental antibody)": 0.73},
      {"binder": "B14", "Binding Signal (fold over 6E7 parental antibody)": 0.89},
      {"binder": "B15", "Binding Signal (fold over 6E7 parental antibody)": 0.34}
    ]},
    {"target": "T1, human TREM2 (triggering receptor expressed on myeloid cells 2) (human)", "experiment": "2nd screen, 10 nM Ab", "units": {"Binding Signal (fold over 6E7 parental antibody)": "fold"}, "values": [
      {"binder": "B16", "Binding Signal (fold over 6E7 parental antibody)": 3.44},
      {"binder": "B17", "Binding Signal (fold over 6E7 parental antibody)": 3.49},
      {"binder": "B18", "Binding Signal (fold over 6E7 parental antibody)": 4.36},
      {"binder": "B19", "Binding Signal (fold over 6E7 parental antibody)": 5.81},
      {"binder": "B20", "Binding Signal (fold over 6E7 parental antibody)": 4.16},
      {"binder": "B21", "Binding Signal (fold over 6E7 parental antibody)": 1.72},
      {"binder": "B22", "Binding Signal (fold over 6E7 parental antibody)": 2.54},
      {"binder": "B23", "Binding Signal (fold over 6E7 parental antibody)": 6.58},
      {"binder": "B24", "Binding Signal (fold over 6E7 parental antibody)": 4.16},
      {"binder": "B25", "Binding Signal (fold over 6E7 parental antibody)": 3.18}
    ]},
    {"target": "T1, human TREM2 (triggering receptor expressed on myeloid cells 2) (human)", "experiment": "1st screen, 10 nM Ab", "units": {"Binding Signal (fold over 6E7 parental antibody)": "fold"}, "values": [
      {"binder": "B16", "Binding Signal (fold over 6E7 parental antibody)": 3.38},
      {"binder": "B17", "Binding Signal (fold over 6E7 parental antibody)": 3.46},
      {"binder": "B18", "Binding Signal (fold over 6E7 parental antibody)": 4.34},
      {"binder": "B19", "Binding Signal (fold over 6E7 parental antibody)": 6.15},
      {"binder": "B20", "Binding Signal (fold over 6E7 parental antibody)": 4.48},
      {"binder": "B21", "Binding Signal (fold over 6E7 parental antibody)": 1.74},
      {"binder": "B22", "Binding Signal (fold over 6E7 parental antibody)": 2.42},
      {"binder": "B23", "Binding Signal (fold over 6E7 parental antibody)": 6.51},
      {"binder": "B24", "Binding Signal (fold over 6E7 parental antibody)": 4.1},
      {"binder": "B25", "Binding Signal (fold over 6E7 parental antibody)": 2.81}
    ]}
  ]
}
